Experimental data published in patent US20230406951A1 (Pfizer, published 2023).
Numbering of substitutions follows the chain as printed.

T1: human TNFR2 (human, UniProt P20333 23-461)
T1 construct: expressed on the surface of CHO cells; also called HuTNFR2; TNFRSF1B
T1 sequence: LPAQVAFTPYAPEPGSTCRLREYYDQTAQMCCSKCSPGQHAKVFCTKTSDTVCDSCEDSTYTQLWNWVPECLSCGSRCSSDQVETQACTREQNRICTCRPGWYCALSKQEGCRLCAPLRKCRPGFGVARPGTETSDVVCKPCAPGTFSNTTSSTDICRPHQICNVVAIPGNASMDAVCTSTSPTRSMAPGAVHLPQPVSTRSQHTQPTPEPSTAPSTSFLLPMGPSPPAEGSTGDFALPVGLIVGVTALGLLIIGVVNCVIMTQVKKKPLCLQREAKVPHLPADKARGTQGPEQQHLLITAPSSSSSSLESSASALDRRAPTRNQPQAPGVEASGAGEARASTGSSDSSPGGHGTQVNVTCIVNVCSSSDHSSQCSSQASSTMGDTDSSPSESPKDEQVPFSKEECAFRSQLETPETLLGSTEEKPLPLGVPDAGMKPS

B1: TetraFab 2185 (antibody)
heavy: QVQLVQSGAEVKKPGASVKVSCKVSGFSFPSSGVDWVRQAPGQGLEWLGVTRGEGSTHYNQKFQGRVTITKDTSKSTVYMELSSLRSEDTAVYYCASGERDEGFVYWGQGTLVTVSSASTKGPSVFPLAPSSKSTSGGTAALGCLVKDYFPEPVTVSWNSGALTSGVHTFPAVLQSSGLYSLSSVVTVPSSSLGTQTYICNVNHKPSNTKVDKKVEPKSCGGGGSQVQLVQSGAEVKKPGASVKVSCKVSGFSFPSSGVDWVRQAPGQGLEWLGVTRGEGSTHYNQKFQGRVTITKDTSKSTVYMELSSLRSEDTAVYYCASGERDEGFVYWGQGTLVTVSSASTKGPSVFPLAPSSKSTSGGTAALGCLVKDYFPEPVTVSWNSGALTSGVHTFPAVLQSSGLYSLSSVVTVPSSSLGTQTYICNVNHKPSNTKVDKKVEPKSCDKTHTCPPCPAPEAAGAPSVFLFPPKPKDTLMISRTPEVTCVVVDVSHEDPEVKFNWYVDGVEVHNAKTKPREEQYNSTYRVVSVLTVLHQDWLNGKEYKCKVSNKALPAPIEKTISKAKGQPREPQVYTLPPSREEMTKNQVSLTCLVKGFYPSDIAVEWESNGQPENNYKTTPPVLDSDGSFFLYSKLTVDKSRWQQGNVFSCSVMHEALHNHYTQKSLSLSPGK
light: DIQLTQSPSFLSASVGDRVTITCKASQNVGTAVAWYQQKPGKAPKLLIYAASTLQSGVPSRFSGSGSGTEFTLTISSLQPEDFATYYCLQYSSYPLTFGGGTKVEIKRTVAAPSVFIFPPSDEQLKSGTASVVCLLNNFYPREAKVQWKVDNALQSGNSQESVTEQDSKDSTYSLSSTLTLSKADYEKHKVYACEVTHQGLSSPVTKSFNRGEC
notes: TetraFab
B2: TetraFab 2084 (antibody)
heavy: B1 heavy with R100W, R325W
light: DIQLTQSPSFLSASVGDRVTITCKASQNVGTAVAWYQQKPGKAPKLLIYAASTLQSGVPSRFSGSGSGTEFTLTISSLQPEDFATYYCQQYNSYPFGGGTKVEIKRTVAAPSVFIFPPSDEQLKSGTASVVCLLNNFYPREAKVQWKVDNALQSGNSQESVTEQDSKDSTYSLSSTLTLSKADYEKHKVYACEVTHQGLSSPVTKSFNRGEC
notes: TetraFab
B3: TetraFab 2096 (antibody)
heavy: B1 heavy with R100S, D101T, R325S, D326T
light: B2 light
notes: TetraFab
B4: TetraFab 2087 (antibody)
heavy: B1 heavy with R52H, E54S, R100W, R277H, E279S, R325W
light: B2 light
notes: TetraFab
B5: TetraFab 2191 (antibody)
heavy: B1 heavy with R52L, E54H, R100S, D101T, R277L, E279H, R325S, D326T
light: B1 light
notes: TetraFab
B6: TetraFab 2192 (antibody)
heavy: B1 heavy with R52L, E54H, R100H, R277L, E279H, R325H
light: B1 light
notes: TetraFab
B7: IgG 1918 (antibody, name in Kabat numbering, V domains shown)
VH: QVQLVQSGAEVKKPGASVKVSCKVSGFSFPSSGVDWVRQAPGQGLEWLGVTRGEGSTHYNQKFQGRVTITKDTSKSTVYMELSSLRSEDTAVYYCASGEWDEGFVYWGQGTLVTVSS
VL: DIQLTQSPSFLSASVGDRVTITCKASQNVGTAVAWYQQKPGKAPKLLIYAASTLQSGVPSRFSGSGSGTEFTLTISSLQPEDFATYYCQQYNSYPFGGGTKVEIKR
notes: IgG
B8: IgG 2002 (antibody, name in Kabat numbering, V domains shown)
VH: B7 VH with R52F, G53Q, W100H
VL: B7 VL with N92Y, Y94T
notes: IgG
B9: IgG 1932 (antibody, name in Kabat numbering, V domains shown)
VH: B7 VH with R52W, E54V, W100H
VL: B7 VL with N92Y, Y94T
notes: IgG
B10: IgG 1991 (antibody, name in Kabat numbering, V domains shown)
VH: B7 VH with R52H, E54S, W100R
VL: B7 VL
notes: IgG
B11: IgG 1922 (antibody, name in Kabat numbering, V domains shown)
VH: B7 VH with R52W, E54V, W100S, D101T
VL: B7 VL
notes: IgG
B12: IgG 1982 (antibody, name in Kabat numbering, V domains shown)
VH: B7 VH with R52F, G53Q, W100H
VL: B7 VL
notes: IgG
B13: IgG 1989 (antibody, name in Kabat numbering, V domains shown)
VH: B7 VH with R52H, E54S, W100S, D101T
VL: B7 VL
notes: IgG
B14: IgG 1987 (antibody, name in Kabat numbering, V domains shown)
VH: B7 VH with R52L, E54H, W100R
VL: B7 VL
notes: IgG
B15: IgG 1990 (antibody, name in Kabat numbering, V domains shown)
VH: B7 VH with R52H, E54S, W100H
VL: B7 VL
notes: IgG
B16: IgG 1997 (antibody, name in Kabat numbering, V domains shown)
VH: B7 VH with W100S, D101T
VL: B7 VL with N92Y, Y94T
notes: IgG
B17: IgG 2202 (antibody, name in Kabat numbering, V domains shown)
VH: B7 VH with R52W, E54V
VL: B7 VL
notes: IgG
B18: IgG 1925 (antibody, name in Kabat numbering, V domains shown)
VH: B7 VH with R52W, E54V, W100Q
VL: B7 VL
notes: IgG
B19: IgG 1921 (antibody, name in Kabat numbering, V domains shown)
VH: B7 VH with R52H, E54S
VL: B7 VL
notes: IgG
B20: IgG 1978 (antibody, name in Kabat numbering, V domains shown)
VH: B7 VH with W100H
VL: B7 VL
notes: IgG
B21: IgG 1979 (antibody, name in Kabat numbering, V domains shown)
VH: B7 VH with W100R
VL: B7 VL
notes: IgG
B22: IgG 1973 (antibody, name in Kabat numbering, V domains shown)
VH: B7 VH with R52K, E54Q, W100S, D101T
VL: B7 VL
notes: IgG
B23: IgG 1924 (antibody, name in Kabat numbering, V domains shown)
VH: B7 VH with R52W, E54V, W100R
VL: B7 VL
notes: IgG
B24: IgG 1980 (antibody, name in Kabat numbering, V domains shown)
VH: B7 VH with W100Q
VL: B7 VL
notes: IgG
B25: IgG 2203 (antibody, name in Kabat numbering, V domains shown)
VH: B7 VH with R52W, E54V
VL: B7 VL with N92Y, Y94T
notes: IgG
B26: IgG 1926 (antibody, name in Kabat numbering, V domains shown)
VH: B7 VH with R52K, E54Q
VL: B7 VL with N92Y, Y94T
notes: IgG
B27: IgG 1977 (antibody, name in Kabat numbering, V domains shown)
VH: B7 VH with W100S, D101T
VL: B7 VL
notes: IgG
B28: IgG 1934 (antibody, name in Kabat numbering, V domains shown)
VH: B7 VH with R52W, E54V, W100Q
VL: B7 VL with N92Y, Y94T
notes: IgG
B29: IgG 1933 (antibody, name in Kabat numbering, V domains shown)
VH: B7 VH with R52W, E54V, W100R
VL: B7 VL with N92Y, Y94T
notes: IgG
B30: IgG 1927 (antibody, name in Kabat numbering, V domains shown)
VH: B7 VH
VL: B7 VL with N92Y, Y94T
notes: IgG
B31: IgG 1931 (antibody, name in Kabat numbering, V domains shown)
VH: B7 VH with R52W, E54V, W100S, D101T
VL: B7 VL with N92Y, Y94T
notes: IgG

Biological target: T1, human TNFR2
Experiment: binding to human TNFR2 CHO cells

Binding result, no binding:
B1
B2
B3
B4
B5
B6
B7
B8
B9
B10
B11
B12
B13
B14
B15
B16
B17
B18
B19
B20
B21
B22
B23
B24
B25
B26
B27
B28
B29
B30
B31
